# Assay results: patent US20210087281A1 (AGOMAB THERAPEUTICS, published 2021)
# B1: 71G3 chimeric llama-human IgG1 mAb (antibody, V domains shown)
# VH: QVQLVESGGGLVQPGGSLRVSCAASGFTFSTYYMSWVRQAPGKGLEWVSDIRTDGGTYYADSVKGRFTMSRDNAKNTLYLQMNSLKPEDTALYYCARTRIFPSGYDYWGQGTQVTVSS
# VL: QAVVTQEPSLSVSPGGTVTLTCGLSSGSVTTSNYPGWFQQTPGQAPRTLIYNTNSRHSGVPSRFSGSISGNKAALTIMGAQPEDEADYYCSLYPGSTTVFGGGTHLTVL
# notes: llama VH on human IgG1 CH1-CH2-CH3, llama VL on human lambda CL
# Legend:
# [1] = target: T1, native human MET on living cells (human, UniProt P08581 25-1390); experiment: cell-based or functional assay
# [2] = target: T2, native mouse MET on living cells (mouse, UniProt P16056 25-1379); experiment: cell-based or functional assay
# [3] = target: T1, native human MET on living cells; experiment: cell-based or functional assay; remark: listed apart in the source
# [4] = target: T2, native mouse MET on living cells; experiment: cell-based or functional assay; remark: listed apart in the source
# [5] = target: T1, native human MET on living cells; experiment: cell-based or functional assay; remark: listed apart in the source
# [6] = target: T2, native mouse MET on living cells; experiment: cell-based or functional assay; remark: listed apart in the source
# [7] = target: T1, native human MET on living cells; experiment: cell-based or functional assay; remark: listed apart in the source
# [8] = target: T2, native mouse MET on living cells; experiment: cell-based or functional assay; remark: listed apart in the source
# [9] = target: T1, native human MET on living cells; experiment: flow cytometry, A549 cells
# Summary of the method: (§1)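 Chimeric anti-MET antibodies were incubated with living cells expressing native MET, human on A549 and mouse on MLP29. Binding was detected by flow cytometry with phycoerythrin-conjugated anti-human IgG1. Commercial anti-MET antibodies with matching PE secondaries served as positive controls.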
# [10] = target: T2, native mouse MET on living cells; experiment: flow cytometry, MLP29 cells
# Summary of the method: as §1
# [11] = target: human MET ECD mutant I (mutations 6, 7, 8) (human) (UniProt P08581); experiment: ELISA, MET ECD in solid phase, mAb 0-50 nM
# [12] = target: human MET ECD mutant J (mutations 6, 7) (human) (UniProt P08581); experiment: ELISA, MET ECD in solid phase, mAb 0-50 nM
# [13] = target: T3, human MET ECD (human, UniProt P08581 25-932); experiment: ELISA, MET ECD in solid phase, mAb 0-20 nM
# T3 construct: range 1-932; recombinant ECD made by the applicants; the stated range begins at residue 1, so it includes the signal peptide of the entry; also called hMET; hMET ECD
# Summary of the method: (§2)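 Chimeric llama-human IgG1 antibodies were expressed by transient transfection of mammalian cells and purified by protein A affinity chromatography. Their binding was then measured by ELISA against immobilized MET ECD, with antibody titrated in solution.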
# [14] = target: T4, mouse MET ECD (mouse, UniProt P16056 25-931); experiment: ELISA, MET ECD in solid phase, mAb 0-20 nM
# T4 construct: range 1-931; recombinant ECD made by the applicants; the stated range begins at residue 1; also called mMET; mMET ECD
# Summary of the method: as §2
# [15] = target: T5, human MET-Fc (R&D Systems) (human, UniProt P08581 25-932); experiment: competition ELISA, hMET-Fc in solid phase, competitor 0.3 nM biotinylated hHGF
# T5 construct: extracellular domain; bought chimeric protein; also called hMET; not shown: Fc portion of human IgG1
# Summary of the method: (§3)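 N-terminally biotinylated HGF (NHS-LC-biotin); mAbs titrated 0-120 nM against coated MET-Fc; read-out IC₅₀ (50% competition) and IMAX (max % competition at saturation).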
# [16] = target: T6, mouse MET-Fc (R&D Systems) (mouse, UniProt P16056 25-929, limits assumed); experiment: competition ELISA, mMET-Fc in solid phase, competitor 0.3 nM biotinylated mHGF
# T6 construct: bought chimeric protein; also called mMET; not shown: Fc part
# Summary of the method: as §3
# T1 sequence (P08581 25-1390): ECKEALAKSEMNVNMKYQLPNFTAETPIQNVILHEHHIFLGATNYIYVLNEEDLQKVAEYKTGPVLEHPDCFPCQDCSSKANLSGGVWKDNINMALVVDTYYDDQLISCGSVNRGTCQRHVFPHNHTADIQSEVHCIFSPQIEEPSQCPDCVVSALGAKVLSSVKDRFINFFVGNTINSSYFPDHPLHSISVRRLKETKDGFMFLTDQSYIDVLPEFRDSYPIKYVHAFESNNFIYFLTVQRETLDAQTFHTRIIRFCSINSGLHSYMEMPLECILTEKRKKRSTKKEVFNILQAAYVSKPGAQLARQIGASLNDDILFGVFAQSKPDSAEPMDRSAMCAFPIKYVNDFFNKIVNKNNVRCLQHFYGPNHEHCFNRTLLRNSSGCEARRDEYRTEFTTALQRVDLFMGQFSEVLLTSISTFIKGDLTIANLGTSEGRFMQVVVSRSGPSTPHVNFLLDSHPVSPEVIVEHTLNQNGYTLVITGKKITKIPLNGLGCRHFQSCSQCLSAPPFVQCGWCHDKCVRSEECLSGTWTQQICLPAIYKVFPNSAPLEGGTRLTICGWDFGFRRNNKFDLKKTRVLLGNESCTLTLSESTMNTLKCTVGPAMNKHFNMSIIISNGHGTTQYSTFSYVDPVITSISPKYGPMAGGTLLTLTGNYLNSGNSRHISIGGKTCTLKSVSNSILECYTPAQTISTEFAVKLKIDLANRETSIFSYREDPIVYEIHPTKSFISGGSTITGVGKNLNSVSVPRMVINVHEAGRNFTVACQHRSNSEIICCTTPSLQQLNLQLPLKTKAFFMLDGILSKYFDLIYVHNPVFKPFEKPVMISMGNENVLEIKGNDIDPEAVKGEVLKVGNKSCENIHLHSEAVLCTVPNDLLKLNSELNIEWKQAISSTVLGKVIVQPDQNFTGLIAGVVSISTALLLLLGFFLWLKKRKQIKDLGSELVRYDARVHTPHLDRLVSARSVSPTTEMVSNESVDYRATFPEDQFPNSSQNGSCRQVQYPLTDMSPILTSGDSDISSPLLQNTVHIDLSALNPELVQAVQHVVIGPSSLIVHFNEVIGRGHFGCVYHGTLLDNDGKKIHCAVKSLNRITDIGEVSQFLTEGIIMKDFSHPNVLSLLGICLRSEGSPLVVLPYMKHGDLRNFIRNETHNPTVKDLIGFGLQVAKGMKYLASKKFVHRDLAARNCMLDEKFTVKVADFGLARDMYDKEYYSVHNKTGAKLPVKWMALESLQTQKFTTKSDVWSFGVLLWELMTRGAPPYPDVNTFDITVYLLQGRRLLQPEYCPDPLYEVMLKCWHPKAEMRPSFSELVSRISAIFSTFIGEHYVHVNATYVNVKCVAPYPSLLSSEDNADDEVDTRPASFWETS
# T5 sequence (P08581 25-932): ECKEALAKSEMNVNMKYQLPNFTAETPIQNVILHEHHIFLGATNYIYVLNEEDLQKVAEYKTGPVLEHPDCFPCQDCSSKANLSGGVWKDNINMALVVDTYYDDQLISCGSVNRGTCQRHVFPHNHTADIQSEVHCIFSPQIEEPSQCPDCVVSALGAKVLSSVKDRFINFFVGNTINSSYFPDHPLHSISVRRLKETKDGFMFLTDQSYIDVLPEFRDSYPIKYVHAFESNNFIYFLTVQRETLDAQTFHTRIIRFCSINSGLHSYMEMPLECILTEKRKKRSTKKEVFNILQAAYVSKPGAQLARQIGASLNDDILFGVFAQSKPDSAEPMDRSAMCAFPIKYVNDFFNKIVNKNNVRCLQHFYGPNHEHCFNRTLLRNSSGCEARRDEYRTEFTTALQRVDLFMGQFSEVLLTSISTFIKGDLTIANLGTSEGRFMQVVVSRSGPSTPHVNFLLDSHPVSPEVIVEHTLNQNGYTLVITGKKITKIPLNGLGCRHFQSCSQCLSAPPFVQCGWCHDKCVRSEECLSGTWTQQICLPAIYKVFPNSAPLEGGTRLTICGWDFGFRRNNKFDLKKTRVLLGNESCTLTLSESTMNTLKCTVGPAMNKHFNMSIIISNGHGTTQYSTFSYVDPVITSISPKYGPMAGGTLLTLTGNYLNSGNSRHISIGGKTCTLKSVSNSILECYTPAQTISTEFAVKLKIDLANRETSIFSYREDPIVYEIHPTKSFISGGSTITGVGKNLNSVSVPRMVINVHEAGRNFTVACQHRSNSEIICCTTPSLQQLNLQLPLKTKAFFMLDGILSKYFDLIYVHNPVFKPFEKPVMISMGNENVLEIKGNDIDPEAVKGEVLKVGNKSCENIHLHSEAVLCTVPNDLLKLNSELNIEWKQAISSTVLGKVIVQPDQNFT
# T3 sequence (P08581 25-932 limits assumed, form in doubt): as the sequence (P08581 25-932) above
binder,measurement,setting,value
B1,"phospho-MET ELISA EC50, A549 cells",[1],0.41 nM
same,"phospho-MET ELISA EMAX (% HGF activity), A549 cells",[1],95.7%
same,"phospho-MET ELISA EC50, MLP29 cells",[2],0.37 nM
same,"phospho-MET ELISA EMAX (% HGF activity), MLP29 cells",[2],97.8%
same,"scatter score 0-4, HPAF-II, 0.001 nM",[3],0 score
same,"scatter score 0-4, HPAF-II, 0.004 nM",[3],0 score
same,"scatter score 0-4, HPAF-II, 0.012 nM",[3],1 score
same,"scatter score 0-4, HPAF-II, 0.037 nM",[3],2 score
same,"scatter score 0-4, HPAF-II, 0.111 nM",[3],3 score
same,"scatter score 0-4, HPAF-II, 0.333 nM",[3],4 score
same,"scatter score 0-4, HPAF-II, 1.000 nM",[3],4 score
same,"scatter score 0-4, HPAF-II, 3.000 nM",[3],4 score
same,"scatter score 0-4, HPAF-II, 9.000 nM",[3],4 score
same,"scatter score 0-4, MLP29, 0.001 nM",[4],0 score
same,"scatter score 0-4, MLP29, 0.004 nM",[4],0 score
same,"scatter score 0-4, MLP29, 0.012 nM",[4],0 score
same,"scatter score 0-4, MLP29, 0.037 nM",[4],1 score
same,"scatter score 0-4, MLP29, 0.111 nM",[4],2 score
same,"scatter score 0-4, MLP29, 0.333 nM",[4],4 score
same,"scatter score 0-4, MLP29, 1.000 nM",[4],4 score
same,"scatter score 0-4, MLP29, 3.000 nM",[4],4 score
same,"scatter score 0-4, MLP29, 9.000 nM",[4],4 score
same,"protection from staurosporine, viability EC50, MCF10A cells",[5],5.04 nM
same,"protection from staurosporine, viability EMAX, MCF10A cells",[5],65.2%
same,"protection from staurosporine, viability EC50, MLP29 cells",[6],4.85 nM
same,"protection from staurosporine, viability EMAX, MLP29 cells",[6],62.3%
same,"branches per spheroid, LOC cells, 0.5 nM",[7],13.7 branches
same,"branches per spheroid, LOC cells, 2.5 nM",[7],19 branches
same,"branches per spheroid, LOC cells, 12.5 nM",[7],22.3 branches
same,"branches per spheroid, MLP29 cells, 0.5 nM",[8],24.7 branches
same,"branches per spheroid, MLP29 cells, 2.5 nM",[8],34.3 branches
same,"branches per spheroid, MLP29 cells, 12.5 nM",[8],29.3 branches
same,EC50,[9],0.296 nM
same,EMAX,[9],117 % relative to control
same,EC50,[10],0.214 nM
same,EMAX,[10],116 % relative to control
same,% binding (EMAX) compared to WT MET,[11],100 % WT MET ECD
same,% binding (EMAX) compared to WT MET,[12],91.2 % WT MET ECD
same,EC50,[13],0.067 nM
same,EMAX (OD450),[13],2.83 AU
same,EC50,[14],0.057 nM
same,EMAX (OD450),[14],2.98 AU
same,IC50,[15],0.49 nM
same,IMAX,[15],63.2%
same,IC50,[16],0.53 nM
same,IMAX,[16],62.9%
